The text below walks through data of patent US6133428.

Assay [1] addresses Gab1 of insulin-stimulated 3T3-L1 fibroblasts (Mus musculus (Mouse)) (UniProt Q9QYY0). As to the kind of experiment: PI-3-kinase activity assay on anti-Gab1 immunoprecipitates from 3T3-L1 fibroblasts.
For assay [2] the target is unchanged. As to the kind of experiment: PI-3-kinase activity assay on immunoprecipitates from insulin stimulated 3T3-L1 fibroblasts.
Assay [3] deals with endogenous Gab1 of EGF stimulated A431 cells (Homo sapiens (Human)). As to the kind of experiment: PI-3-kinase activity assay on anti-Gab1 immunoprecipitates from A431 cells.
For assay [4], the target named is endogenous Gab1 of insulin stimulated A431 cells (Homo sapiens (Human)). The assay is described as above.
For assay [5], the target named is endogenous Gab1 of EGF stimulated A431 cells (Homo sapiens (Human)). In words: PI-3-kinase activity assay on immunoprecipitates from EGF stimulated A431 cells.

In the case of “PI-3-kinase of 3T3-L1 fibroblasts (enzyme)”, the fold increase of PI-3-kinase activity in Gab1 immunoprecipitates in assay [1] is 2.4 fold. The Gab1 associated PI-3-kinase activity as percent of that associated with anti-phosphotyrosine in assay [2] was determined as 71%.

In assay [3], PI-3-kinase of A431 cells (enzyme) showed a fold increase of PI-3-kinase activity in anti-Gab1 immunoprecipitates against unstimulated cells of 2.3 fold. Moreover, the fold increase of PI-3-kinase activity in Gab1 immunoprecipitates in assay [4] came to 1.7 fold. The same substance showed an anti-Gab1 associated PI-3-kinase activity as percent of that in anti-phosphotyrosine immunoprecipitates in assay [5] of 42%.
